Measurements reported in article doi:10.1101/2025.03.16.643581.

Molecular target: CDKL5-PBM peptide, WT (FITC-labeled) (human)
Assay: fluorescence polarisation

First: PSD95 PDZ1 domain (domain or fragment)
Second: PSD95 PDZ2 domain (domain or fragment)
The Kd of the first is 3.6-fold higher: 146 µM for the first, 40.8 µM for the second. The second binds more tightly here.

PSD95 PDZ3 domain (domain or fragment) gave a Kd of 13.3 µM.
